From patent publication US20220064286A1

Assays:
[1] = target: cynomolgus monkey (cyno) TIGIT protein (cynomolgus monkey); test: SPR, bivalent affinity
[2] = target: human TIGIT protein (human) (UniProt Q495A1); test: SPR, bivalent affinity
[3] = target: human TIGIT protein (human) (UniProt Q495A1); test: SPR, monovalent affinity
[4] = target: murine TIGIT (murine) (UniProt P86176); test: SPR, monovalent affinity
[5] = target: human TIGIT protein (human) (UniProt Q495A1); test: SPR (BIACORE), N=2
[6] = target: human TIGIT protein (human) (UniProt Q495A1); test: SPR (BIACORE) KD normalized to WT, N=2
[7] = target: mouse TIGIT-His (mouse) (UniProt P86176); test: Block ELISA Mouse PVR-Fc:TIGIT-His (blocked ligand mouse PVR-Fc)
[8] = target: cynomolgus TIGIT-AviFlag-biotin (cynomolgus monkey); test: Block ELISA Cyno PVR-Fc:Bio-TIGIT-AviFlag (blocked ligand cyno PVR-Fc)
[9] = target: human TIGIT-AviFlag-biotin (human) (UniProt Q495A1); test: Block ELISA Human PVR-Fc:Bio-TIGIT-AviFlag (blocked ligand human PVR-Fc)
human TIGIT-AviFlag-biotin (human), sequence (Q495A1 22-141): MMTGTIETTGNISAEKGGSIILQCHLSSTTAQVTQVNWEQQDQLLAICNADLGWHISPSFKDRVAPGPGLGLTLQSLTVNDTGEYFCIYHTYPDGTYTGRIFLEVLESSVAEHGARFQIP

mouse TIGIT-His (mouse), sequence (P86176 29-148 limits assumed): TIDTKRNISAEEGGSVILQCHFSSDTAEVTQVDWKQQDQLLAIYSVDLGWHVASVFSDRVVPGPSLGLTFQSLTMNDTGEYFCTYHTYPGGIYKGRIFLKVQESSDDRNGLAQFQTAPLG
cynomolgus TIGIT-AviFlag-biotin (cynomolgus monkey), sequence (chain, as listed by the source): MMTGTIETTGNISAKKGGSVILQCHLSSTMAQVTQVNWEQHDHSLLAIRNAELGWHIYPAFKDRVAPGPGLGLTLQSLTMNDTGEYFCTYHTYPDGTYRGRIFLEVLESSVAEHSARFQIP
human TIGIT protein (human), sequence (Q495A1 22-141 limits assumed): as the sequence (Q495A1 22-141) above
10A7 (antibody), sequence (VH): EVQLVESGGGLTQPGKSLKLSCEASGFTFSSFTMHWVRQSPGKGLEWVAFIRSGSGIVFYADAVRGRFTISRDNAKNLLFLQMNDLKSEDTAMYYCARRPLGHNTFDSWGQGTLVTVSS
10A7 (antibody), sequence (VL): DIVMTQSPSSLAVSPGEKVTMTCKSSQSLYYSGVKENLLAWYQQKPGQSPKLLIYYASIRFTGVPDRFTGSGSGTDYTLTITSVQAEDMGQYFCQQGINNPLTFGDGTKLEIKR
10A7 Fab, sequence (VH): as the sequence (VH) above
10A7 Fab, sequence (VL): as the sequence (VL) above
murine TIGIT (murine), sequence (P86176 29-148 limits assumed): as the sequence (P86176 29-148 limits assumed) above
cynomolgus monkey (cyno) TIGIT protein (cynomolgus monkey), sequence (chain, as listed by the source): as the sequence (chain, as listed by the source) above

Kd [1] [nM]	Kd [2] [nM]	Kd [3] [nM]	Kd [4] [nM]	Kd [5] [nM]	Binding affinity drop vs. WT [6] [fold]	IC50 [7] [nM]	IC50 [8] [nM]	IC50 [9] [nM]	Substance
8.22	0.54	24	0.24	44.7	1	12.6	55.7	12.9	10A7 (antibody)
–	–	–	–	–	–	20.9	> 133	21.2	10A7 Fab
–	–	–	–	–	–	> 133	> 133	> 133	xCSF1 Fab control
